The text below walks through data of IntAct's records for PubMed 25487150.

The labels stand for the following.
B1: Spindle pole body-associated protein cut12 (Schizosaccharomyces pombe (strain ATCC 38366 / 972)), O59755 (parent)
chain: MSETLNTPPTYAWVLKAFSSKLAGTVTKPVTKMSSYIEDAESDAELPQDAKEDLRPTETLTPLKSKAAQNGILKTPGTLQIKKTVNFKDISKDAATWNRPTKNNFLFTRLDDENPLMGHEEFKSPLLQSTPKPNINNPDNENKSKHDEFDNRYNININESYKNETKSNQRLGEDVPSKKKYPHSMDAEISKFKWDSNNNNDWSSLMKDCFRDVVNNNRKMKEIIKDVMIDTSQAFPSESLDEPDYTINLDAPRSSSGKYWKQKFSMLDSAHSDLELELTSIRERLESLILEKQEEINFWKQRCRALETEKIHNHQGQQSKYKGKEFVGNRFSQMRELYTAKPSPITTKVVSRPSQSDVREPQEQVPSKNLHRGADMSHLAAQMLTHSSKKSHTTNLIPSEGIISSTPISAASKVRMNLMQSNQTPTPAPFSIAAKKSHLPSKLSFPQDGGSLSSATTLQQLPKARVTPNVLSSLSSNLGKTNPTSVYQSKANVTTSADVEKPQVKVATSSRVDYDLKSPNQRTANAKKRLEERRRRRKLKLQELQLNS
B2: Protein phosphatase PP2A regulatory subunit B (Schizosaccharomyces pombe (strain ATCC 38366 / 972)), Q12702 (parent)
chain: MDDIEDSLDQWKFAQCFGDKGDVEDITEADIISAVEFDHTGDYLATGDKGGRVVLFERNHSKKGCEYKFFTEFQSHEPEFDYLKSLEIEEKINKIRWCKRTNRAHFLLSTNDKTIKLWKLYEKNLKVVAENNLSDSFHSPMQGPLTTPSQLRLPRLNHHDMIIAAYPRRVYANAHAYHINSISVNSDAETYISADDLRINLWNLSISDHSFNIVDIKPENMEELTEVITSAEFHPINCNHLMYSSSKGNIKLLDLRQSALCDNPCKLFEDQEDQDSKSFFSEIISSISDVKFSQNGRYILSRDYLTLKIWDVNMEKAPVKTIPLHDVLRSKLCDLYENDCIFDKFECTFSGDDKHVLSGSYSNNFGIYPTDSSLPGDRGQIVLQADKAAFRARKSAANNVPKLNAVKNNDWRSQPQAAMGSASVGLDPDNLDYNKKILHASWHPFEDSVAIAATNNLFVFSKL

Variants of B1 are the subject of the first test. As to conditions: with pp11_schpo dis2, P13681.
Target sequence in this assay (P13681 whole entry): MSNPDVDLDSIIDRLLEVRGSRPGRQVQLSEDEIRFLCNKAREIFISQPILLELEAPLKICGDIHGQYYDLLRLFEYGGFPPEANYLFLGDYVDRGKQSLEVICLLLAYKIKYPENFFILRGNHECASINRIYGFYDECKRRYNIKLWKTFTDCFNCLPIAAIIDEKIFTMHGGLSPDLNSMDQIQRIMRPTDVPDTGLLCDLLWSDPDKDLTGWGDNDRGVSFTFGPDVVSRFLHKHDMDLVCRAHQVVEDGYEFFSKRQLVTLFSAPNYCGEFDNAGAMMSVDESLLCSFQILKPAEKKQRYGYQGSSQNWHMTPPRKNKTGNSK
Consider MSETLNTPPTYAWVLKAFSSKLAGTVTKPVTKMSSYIEDAESDAELPQDAKEDLRPTETLTPLKSKAAQNVILKTPGTLQIKKTVNFKDISKDAATWNRPTKNNFLFTRLDDENPLMGHEEFKSPLLQSTPKPNINNPDNENKSKHDEFDNRYNININESYKNETKSNQRLGEDVPSKKKYPHSMDAEISKFKWDSNNNNDWSSLMKDCFRDVVNNNRKMKEIIKDVMIDTSQAFPSESLDEPDYTINLDAPRSSSGKYWKQKFSMLDSAHSDLELELTSIRERLESLILEKQEEINFWKQRCRALETEKIHNHQGQQSKYKGKEFVGNRFSQMRELYTAKPSPITTKVVSRPSQSDVREPQEQVPSKNLHRGADMSHLAAQMLTHSSKKSHTTNLIPSEGIISSTPISAASKVRMNLMQSNQTPTPAPFSIAAKKSHLPSKLSFPQDGGSLSSATTLQQLPKARVTPNVLSSLSSNLGKTNPTSVYQSKANVTTSADVEKPQVKVATSSRVDYDLKSPNQRTANAKKRLEERRRRRKLKLQELQLNS [G71V], for which the “effect of a mutation on the interaction” value is “decreasing interaction strength”.
For MSETLNTPPTYAWVLKAFSSKLAGTVTKPVTKMSSYIEDAESDAELPQDAKEDLRPTETLTPLKSKAAQNGLLRTPGTLQIKKTANAKDISKDAATWNRPTKNNFLFTRLDDENPLMGHEEFKSPLLQSTPKPNINNPDNENKSKHDEFDNRYNININESYKNETKSNQRLGEDVPSKKKYPHSMDAEISKFKWDSNNNNDWSSLMKDCFRDVVNNNRKMKEIIKDVMIDTSQAFPSESLDEPDYTINLDAPRSSSGKYWKQKFSMLDSAHSDLELELTSIRERLESLILEKQEEINFWKQRCRALETEKIHNHQGQQSKYKGKEFVGNRFSQMRELYTAKPSPITTKVVSRPSQSDVREPQEQVPSKNLHRGADMSHLAAQMLTHSSKKSHTTNLIPSEGIISSTPISAASKVRMNLMQSNQTPTPAPFSIAAKKSHLPSKLSFPQDGGSLSSATTLQQLPKARVTPNVLSSLSSNLGKTNPTSVYQSKANVTTSADVEKPQVKVATSSRVDYDLKSPNQRTANAKKRLEERRRRRKLKLQELQLNS [I72L;K74R;V85A;F87A], the “effect of a mutation on the interaction” value was “decreasing interaction strength”.
Same read-out and setting: next, MSETLNTPPTYAWVLKAFSSKLAGTVTKPVTKMSSYIEDAESDAELPQDAKEDLRPTETLTPLKSKAAQNGILKTPGTLQIKKTANAKDISKDAATWNRPTKNNFLFTRLDDENPLMGHEEFKSPLLQSTPKPNINNPDNENKSKHDEFDNRYNININESYKNETKSNQRLGEDVPSKKKYPHSMDAEISKFKWDSNNNNDWSSLMKDCFRDVVNNNRKMKEIIKDVMIDTSQAFPSESLDEPDYTINLDAPRSSSGKYWKQKFSMLDSAHSDLELELTSIRERLESLILEKQEEINFWKQRCRALETEKIHNHQGQQSKYKGKEFVGNRFSQMRELYTAKPSPITTKVVSRPSQSDVREPQEQVPSKNLHRGADMSHLAAQMLTHSSKKSHTTNLIPSEGIISSTPISAASKVRMNLMQSNQTPTPAPFSIAAKKSHLPSKLSFPQDGGSLSSATTLQQLPKARVTPNVLSSLSSNLGKTNPTSVYQSKANVTTSADVEKPQVKVATSSRVDYDLKSPNQRTANAKKRLEERRRRRKLKLQELQLNS [V85A;F87A]: “decreasing interaction strength”; MSETLNTPPTYAWVLKAFSSKLAGTVTKPVTKMSSYIEDAESDAELPQDAKEDLRPTETLTPLKSKAAQNVILKTPGTLQIKATANAKDISKDAATWNRPTKNNFLFTRLDDENPLMGHEEFKSPLLQSTPKPNINNPDNENKSKHDEFDNRYNININESYKNETKSNQRLGEDVPSKKKYPHSMDAEISKFKWDSNNNNDWSSLMKDCFRDVVNNNRKMKEIIKDVMIDTSQAFPSESLDEPDYTINLDAPRSSSGKYWKQKFSMLDSAHSDLELELTSIRERLESLILEKQEEINFWKQRCRALETEKIHNHQGQQSKYKGKEFVGNRFSQMRELYTAKPSPITTKVVSRPSQSDVREPQEQVPSKNLHRGADMSHLAAQMLTHSSKKSHTTNLIPSEGIISSTPISAASKVRMNLMQSNQTPTPAPFSIAAKKSHLPSKLSFPQDGGSLSSATTLQQLPKARVTPNVLSSLSSNLGKTNPTSVYQSKANVTTSADVEKPQVKVATSSRVDYDLKSPNQRTANAKKRLEERRRRRKLKLQELQLNS [G71V;K83A;V85A;F87A]: “disrupting interaction strength”.

In the next test the parent is B2. Particulars: with pp11_schpo dis2, P13681.
Target sequence in this assay (P13681 whole entry): as the sequence (P13681 whole entry) above
As for MDDIEDSLDQWKFAQCFGDKGDVEDITEADIISAVEFDHTGDYLATGDKGGAVALAERNHSKKGCEYKFFTEFQSHEPEFDYLKSLEIEEKINKIRWCKRTNRAHFLLSTNDKTIKLWKLYEKNLKVVAENNLSDSFHSPMQGPLTTPSQLRLPRLNHHDMIIAAYPRRVYANAHAYHINSISVNSDAETYISADDLRINLWNLSISDHSFNIVDIKPENMEELTEVITSAEFHPINCNHLMYSSSKGNIKLLDLRQSALCDNPCKLFEDQEDQDSKSFFSEIISSISDVKFSQNGRYILSRDYLTLKIWDVNMEKAPVKTIPLHDVLRSKLCDLYENDCIFDKFECTFSGDDKHVLSGSYSNNFGIYPTDSSLPGDRGQIVLQADKAAFRARKSAANNVPKLNAVKNNDWRSQPQAAMGSASVGLDPDNLDYNKKILHASWHPFEDSVAIAATNNLFVFSKL [R52A;V54A;F56A], the “effect of a mutation on the interaction” value is “disrupting interaction strength”.
As for MDDIEDSLDQWKFAQCFGDKGDVEDITEADIISAVEFDHTGDYLATGDKGGRVALFERNHSKKGCEYKFFTEFQSHEPEFDYLKSLEIEEKINKIRWCKRTNRAHFLLSTNDKTIKLWKLYEKNLKVVAENNLSDSFHSPMQGPLTTPSQLRLPRLNHHDMIIAAYPRRVYANAHAYHINSISVNSDAETYISADDLRINLWNLSISDHSFNIVDIKPENMEELTEVITSAEFHPINCNHLMYSSSKGNIKLLDLRQSALCDNPCKLFEDQEDQDSKSFFSEIISSISDVKFSQNGRYILSRDYLTLKIWDVNMEKAPVKTIPLHDVLRSKLCDLYENDCIFDKFECTFSGDDKHVLSGSYSNNFGIYPTDSSLPGDRGQIVLQADKAAFRARKSAANNVPKLNAVKNNDWRSQPQAAMGSASVGLDPDNLDYNKKILHASWHPFEDSVAIAATNNLFVFSKL [V54A], the “effect of a mutation on the interaction” value is “decreasing interaction strength”.
